Where two headings read alike, the source gives them in different places.

Common to all, as to test: cell-based or functional assay
Assay [1] concerns the target T1, IL-10 receptor (IL-10R: IL10RA and IL10RB) on HEK-Blue IL-10 reporter cells (UniProt Q13651 22-578; Q08334 20-325, limits assumed).
T1 sequence (looked up) 1: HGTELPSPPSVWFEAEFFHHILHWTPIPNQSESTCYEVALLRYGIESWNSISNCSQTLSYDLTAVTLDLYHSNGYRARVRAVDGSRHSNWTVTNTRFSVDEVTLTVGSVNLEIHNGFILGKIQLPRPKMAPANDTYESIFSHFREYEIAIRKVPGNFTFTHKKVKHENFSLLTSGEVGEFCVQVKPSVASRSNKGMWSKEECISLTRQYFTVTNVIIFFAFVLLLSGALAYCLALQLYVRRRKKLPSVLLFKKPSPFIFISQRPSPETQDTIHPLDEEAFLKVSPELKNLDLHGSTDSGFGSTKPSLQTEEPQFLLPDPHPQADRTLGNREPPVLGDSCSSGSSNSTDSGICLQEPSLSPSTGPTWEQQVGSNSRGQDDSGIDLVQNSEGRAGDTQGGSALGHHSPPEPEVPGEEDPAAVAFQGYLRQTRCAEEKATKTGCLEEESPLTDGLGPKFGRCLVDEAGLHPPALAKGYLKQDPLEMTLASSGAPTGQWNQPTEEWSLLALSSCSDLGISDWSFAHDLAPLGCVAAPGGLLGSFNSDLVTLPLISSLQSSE
T1 sequence (looked up) 2: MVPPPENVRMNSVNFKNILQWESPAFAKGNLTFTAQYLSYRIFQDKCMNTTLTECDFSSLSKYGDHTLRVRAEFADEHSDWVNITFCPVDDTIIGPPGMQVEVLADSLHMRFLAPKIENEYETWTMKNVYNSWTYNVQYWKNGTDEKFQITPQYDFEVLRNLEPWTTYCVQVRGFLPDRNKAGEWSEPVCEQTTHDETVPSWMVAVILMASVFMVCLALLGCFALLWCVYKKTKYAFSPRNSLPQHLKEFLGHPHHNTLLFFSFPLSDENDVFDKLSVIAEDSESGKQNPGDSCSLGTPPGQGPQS

Assay [2] concerns the target T2, IL10RA (UniProt Q13651 22-578, limits assumed).
T2 sequence (looked up): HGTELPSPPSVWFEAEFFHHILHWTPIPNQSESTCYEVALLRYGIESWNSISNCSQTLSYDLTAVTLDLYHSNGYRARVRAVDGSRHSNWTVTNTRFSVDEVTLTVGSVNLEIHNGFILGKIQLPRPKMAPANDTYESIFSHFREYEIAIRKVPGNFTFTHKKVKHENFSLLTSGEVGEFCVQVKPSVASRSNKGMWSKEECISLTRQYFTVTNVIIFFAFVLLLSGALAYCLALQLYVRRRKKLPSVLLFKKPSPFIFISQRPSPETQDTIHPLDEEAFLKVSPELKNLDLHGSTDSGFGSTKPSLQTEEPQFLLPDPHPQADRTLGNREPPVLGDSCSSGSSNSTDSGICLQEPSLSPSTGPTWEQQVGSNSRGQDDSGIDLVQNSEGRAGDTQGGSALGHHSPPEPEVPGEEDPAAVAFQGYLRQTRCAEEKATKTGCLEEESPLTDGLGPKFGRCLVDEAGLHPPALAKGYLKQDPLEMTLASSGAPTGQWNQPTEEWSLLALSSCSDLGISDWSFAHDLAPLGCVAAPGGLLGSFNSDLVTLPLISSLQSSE

Assay [3] concerns the target T3, IL10RB (UniProt Q08334 20-325, limits assumed).
T3 sequence (looked up): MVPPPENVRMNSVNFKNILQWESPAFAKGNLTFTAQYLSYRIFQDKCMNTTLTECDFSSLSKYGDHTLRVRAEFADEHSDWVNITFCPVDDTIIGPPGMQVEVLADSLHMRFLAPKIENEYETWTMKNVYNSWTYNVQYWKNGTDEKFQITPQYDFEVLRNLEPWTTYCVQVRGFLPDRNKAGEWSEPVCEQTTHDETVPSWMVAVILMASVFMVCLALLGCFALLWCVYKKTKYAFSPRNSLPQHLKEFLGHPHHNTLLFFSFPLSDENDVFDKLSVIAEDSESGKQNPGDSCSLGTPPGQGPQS

The target in assay [4] is CSF1 receptor (CSF1R) (UniProt P07333 20-972, limits assumed).
Assay [5] addresses T1, IL-10 receptor (IL-10R: IL10RA and …). The source holds these as a separate data set.

Chain of CSF1 receptor (CSF1R) (P07333 20-972 limits assumed): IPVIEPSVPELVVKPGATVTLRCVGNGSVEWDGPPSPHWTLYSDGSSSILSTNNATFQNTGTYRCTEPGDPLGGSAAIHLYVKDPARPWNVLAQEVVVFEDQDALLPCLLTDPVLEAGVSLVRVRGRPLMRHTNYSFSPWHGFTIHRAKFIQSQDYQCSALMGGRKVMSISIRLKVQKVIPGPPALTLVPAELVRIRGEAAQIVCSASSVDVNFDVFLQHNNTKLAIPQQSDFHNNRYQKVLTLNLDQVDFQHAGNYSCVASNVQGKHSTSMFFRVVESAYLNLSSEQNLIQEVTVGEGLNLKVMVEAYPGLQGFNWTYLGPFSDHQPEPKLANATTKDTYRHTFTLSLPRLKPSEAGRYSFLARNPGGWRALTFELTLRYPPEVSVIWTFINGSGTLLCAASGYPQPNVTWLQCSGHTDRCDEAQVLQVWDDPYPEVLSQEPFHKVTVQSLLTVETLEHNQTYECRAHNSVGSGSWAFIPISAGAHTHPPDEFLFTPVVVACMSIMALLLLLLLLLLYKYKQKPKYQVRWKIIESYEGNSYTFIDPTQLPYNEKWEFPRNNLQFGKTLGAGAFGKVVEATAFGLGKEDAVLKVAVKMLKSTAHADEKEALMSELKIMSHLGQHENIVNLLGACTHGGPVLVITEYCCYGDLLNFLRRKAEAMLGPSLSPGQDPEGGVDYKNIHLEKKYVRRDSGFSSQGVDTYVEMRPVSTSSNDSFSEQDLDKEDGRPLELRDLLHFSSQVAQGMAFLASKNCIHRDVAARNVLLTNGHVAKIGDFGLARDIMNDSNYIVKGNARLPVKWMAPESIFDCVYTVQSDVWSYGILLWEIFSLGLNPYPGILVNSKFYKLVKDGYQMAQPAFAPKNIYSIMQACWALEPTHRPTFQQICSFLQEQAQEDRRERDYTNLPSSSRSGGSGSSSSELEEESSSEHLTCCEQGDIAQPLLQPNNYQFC

B1: Foldikine10_cut116 (ligand)
chain: NKSKAVEQVKNAFNKLQEKGIYKAMSEFDIFINYIEAYMTMNNGGLDYLPNMLRDLRDAFSRVKTFFQMKDQLDNLLLKESLLEDFKGYLGCQALSEMIQFYLEEVMPQAENQDPDIKAHVNSLGENLKTLRLRLRRNHRFLPCENKSKAVEQVKNAFNKLQEKGIYKAMSEFDIFINYIEAYMTMNNGGLDYLPNMLRDLRDAFSRVKTFFQMKDQLDNLLLKESLLEDFKGYLGCQALSEMIQFYLEEVMPQAENQDPDIKAHVNSLGENLKTLRLRLRRNHRFLPCE
Regarding B1, the “IL-10 EC-50, HEK-Blue IL-10 reporter cells” value in assay [1] amounted to 2.41e-10.

B2: CSF1-Foldikine10_cut116-HiBit (ligand)
chain: EEVSEYCSHMIGSGHLQSLQRLIDSQMETSCQITFEFVDQEQLKDPVCYLKKAFLLVQDIMEDTMRFRDNTPNAIAIVQLQELSLRLKSCFTKDYEEHDKACVRTFYETPLQLLEKVKNVFNETKNLLDKDWNIFSKNCNNSFAECSSQDGGGGGSGGSGGSGGSGGSGGSGGSGGSGGGMTQSENSCTHFPGNLPNMLRDLRDAFSRVKTFFQMKDQLDNLLLKESLLEDFKGYLGCQALSEMIQFYLEEVMPQAENQEPDIKAHVNSLGENLKTLRLRLRRCHRFLPCENKSKAVEQVKNAFNKLQEKGIYKAMSEFDIFINYIEAYMTMNNGGLDYLPNMLRDLRDAFSRVKTFFQMKDQLDNLLLKESLLEDFKGYLGCQALSEMIQFYLEEVMPQAENQDPDIKAHVNSLGENLKTLRLRLRRNHRFLPCENKSKAVEQVKNAFNKLQEKGIYKAMSEFDIFINYIEAYMTMKIRNGGVSGWRLFKKIS
For B2, the “IL-10 EC-50, HEK-Blue IL-10 reporter cells” value in assay [1] is 3.06e-10.

B3: ORK10-003-HiBit (ligand)
chain: MTQSENSCTHFPGNLPNMLRDLRDAFSRVKTFFQMKDQLDNLLLKESLLEDFKGYLGCQALSEMIQFYLEEVMPQAENQDPDIKAHVNSLGENLKTLRLRLRRCHRFLPCENKSKAVEQVKNAFNKLQEKGIYKAMSEFDIFINYIEAYLYKTITPEFANMLRDLRDAFSRVKTFFQMKDQLDNLLLKESLLEDFKGYLGCQALSEMIQFYLEEVMPQAENQDPDIKAHVNSLGENLKTLRLRLRRCHRFLPCENKSKAVEQVKNAFNKLQEKGIYKAMSEFDIFINYIEAYMTMGGVSGWRLFKKIS
As to B3, the “EC-50, HEK-Blue IL-10 reporter cells” value amounted to 9.44e-11 in assay [2] and 9.53e-11 in assay [3].

B4: ORK10-003-HiBit N92E (ligand)
chain: MTQSENSCTHFPGNLPNMLRDLRDAFSRVKTFFQMKDQLDNLLLKESLLEDFKGYLGCQALSEMIQFYLEEVMPQAENQDPDIKAHVNSLGENLKTLRLRLRRCHRFLPCENKSKAVEQVKNAFNKLQEKGIYKAMSEFDIFINYIEAYLYKTITPEFANMLRDLRDAFSRVKTFFQMKDQLDNLLLKESLLEDFKGYLGCQALSEMIQFYLEEVMPQAENQDPDIKAHVESLGENLKTLRLRLRRCHRFLPCENKSKAVEQVKNAFNKLQEKGIYKAMSEFDIFINYIEAYMTMGGVSGWRLFKKIS
With B4, the “EC-50, HEK-Blue IL-10 reporter cells” value in assay [3] stood at 1.19e-10.

B5: Foldikine10_cut116-CSF1-HiBit (ligand)
chain: NKSKAVEQVKNAFNKLQEKGIYKAMSEFDIFINYIEAYMTMNNGGLDYLPNMLRDLRDAFSRVKTFFQMKDQLDNLLLKESLLEDFKGYLGCQALSEMIQFYLEEVMPQAENQDPDIKAHVNSLGENLKTLRLRLRRNHRFLPCENKSKAVEQVKNAFNKLQEKGIYKAMSEFDIFINYIEAYMTMNNGGLDYLPNMLRDLRDAFSRVKTFFQMKDQLDNLLLKESLLEDFKGYLGCQALSEMIQFYLEEVMPQAENQDPDIKAHVNSLGENLKTLRLRLRRNHRFLPCEGGGGGSGGSGGSGGSGGSGGSGGSGGSGGGEEVSEYCSHMIGSGHLQSLQRLIDSQMETSCQITFEFVDQEQLKDPVCYLKKAFLLVQDIMEDTMRFRDNTPNAIAIVQLQELSLRLKSCFTKDYEEHDKACVRTFYETPLQLLEKVKNVFNETKNLLDKDWNIFSKNCNNSFAECSSQDGGGVSGWRLFKKIS
On to B5, for which the “IL-10 EC-50, HEK-Blue IL-10 reporter cells” value in assay [1] turned out to be 4.95e-10.

B6: Foldikine10-CSF1-HiBit (ligand)
chain: MTQSENSCTHFPGNLPNMLRDLRDAFSRVKTFFQMKDQLDNLLLKESLLEDFKGYLGCQALSEMIQFYLEEVMPQAENQEPDIKAHVNSLGENLKTLRLRLRRCHRFLPCENKSKAVEQVKNAFNKLQEKGIYKAMSEFDIFINYIEAYMTMNNGGLDYLPNMLRDLRDAFSRVKTFFQMKDQLDNLLLKESLLEDFKGYLGCQALSEMIQFYLEEVMPQAENQDPDIKAHVNSLGENLKTLRLRLRRNHRFLPCENKSKAVEQVKNAFNKLQEKGIYKAMSEFDIFINYIEAYMTMKIRNGGGGGSGGSGGSGGSGGSGGSGGSGGSGGGEEVSEYCSHMIGSGHLQSLQRLIDSQMETSCQITFEFVDQEQLKDPVCYLKKAFLLVQDIMEDTMRFRDNTPNAIAIVQLQELSLRLKSCFTKDYEEHDKACVRTFYETPLQLLEKVKNVFNETKNLLDKDWNIFSKNCNNSFAECSSQDGGVSGWRLFKKIS
Turning to B6, the “CSF1 EC-50, HEK293 CSF1R/SRE reporter” value in assay [4] turned out to be 3.18e-09. The “IL-10 EC-50, HEK-Blue IL-10 reporter cells” value in assay [5] turned out to be 1.36e-09.

(Values after patent US20250304640A1 (ORIKINE BIO SL, published 2025).)
